Drawing on patent US20250277018A1 (published 2025), this text covers Kd for one molecule.

Among the targets are 4A01v3-4; 4A01v3-7; 4A01v3-8; 4A01v1; 4A01v3-3; 4A01v3; 4A01v3-1; 4A01v9; 4A01v3-5; 4A01v6; 4A01v4; 4A01v8; 4A01v5.
Assay in all cases: ELISA
(An ELISA detects its analyte on a solid surface through an enzyme-linked reagent.)

B1: rat (other)
chain: EAHKSEIAHRFKDLGEQHFKGLVLIAFSQYLQKCPYEEHIKLVQEVTDFAKTCVADENAENCDKSIHTLFGDKLCAIPKLRDNYGELADCCAKQEPERNECFLQHKDDNPNLPPFQRPEAEAMCTSFQENPTSFLGHYLHEVARRHPYFYAPELLYYAEKYNEVLTQCCTESDKAACLTPKLDAVKEKALVAAVRQRMKCSSMQRFGERAFKAWAVARMSQRFPNAEFAEITKLATDVTKINKECCHGDLLECADDRAELAKYMCENQATISSKLQACCDKPVLQKSQCLAEIEHDNIPADLPSIAADFVEDKEVCKNYAEAKDVFLGTFLYEYSRRHPDYSVSLLLRLAKKYEATLEKCCAEGDPPACYGTVLAEFQPLVEEPKNLVKTNCELYEKLGEYGFQNAVLVRYTQKAPQVSTPTLVEAARNLGRVGTKCCTLPEAQRLPCVEDYLSAILNRLCVLHEKTPVSEKVTKCCSGSLVERRPCFSALTVDETYVPKEFKAETFTFHSDICTLPDKEKQIKKQTALAELVKHKPKATEDQLKTVMGDFAQFVDKCCKAADKDNCFATEGPNLVARSKEALA
Regarding B1, the Kd (usually the equilibrium constant for the complex coming apart) worked out at 0.252 nM with 4A01v3-4; 0.123 nM with 4A01v3-7; 0.169 nM in the assay with 4A01v3-8; 0.184 nM with 4A01v1; 0.152 nM with 4A01v3-3; 0.162 nM with 4A01v3. Also, the Kd with 4A01v3-1 is 0.13 nM; with 4A01v9 it was 0.144 nM; in the assay with 4A01v3-5, 0.162 nM; in the assay with 4A01v6 it was 0.273 nM; with 4A01v4 it was 0.32 nM; with 4A01v8, 0.328 nM. The molecule further showed a dissociation constant Kd with 4A01v5 of 0.26 nM.
